We go through 1 molecule from PMC2853022.

In the data set the target is NS3h (helicase domain of HCV NS3) (Hepatitis C virus, Con 1b replicon …, UniProt Q9WMX2 1192-1657). The data set can be described thus: stopped-flow fluorescence.
Sequence of NS3h (helicase domain of HCV NS3) (Q9WMX2 1192-1657): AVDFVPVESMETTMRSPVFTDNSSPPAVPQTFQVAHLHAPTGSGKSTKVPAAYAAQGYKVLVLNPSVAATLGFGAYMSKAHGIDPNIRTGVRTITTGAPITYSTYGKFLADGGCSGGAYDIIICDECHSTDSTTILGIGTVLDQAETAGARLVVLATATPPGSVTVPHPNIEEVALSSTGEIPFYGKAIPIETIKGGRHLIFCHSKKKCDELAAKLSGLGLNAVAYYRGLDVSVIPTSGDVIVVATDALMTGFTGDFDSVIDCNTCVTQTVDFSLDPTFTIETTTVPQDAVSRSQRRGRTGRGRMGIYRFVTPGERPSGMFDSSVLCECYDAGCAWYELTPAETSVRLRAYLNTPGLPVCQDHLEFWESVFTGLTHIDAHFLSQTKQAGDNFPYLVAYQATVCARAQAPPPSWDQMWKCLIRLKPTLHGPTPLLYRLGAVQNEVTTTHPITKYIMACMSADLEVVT

B1: 37:22-mer partial duplex (dsDNA)
DNA 1: GACTGACGCTAGGCTGACAGGATTTTTTTTTTTTTTT
DNA 2: TCCTGTCAGCCTAGCGTCAGTC
On to B1, for which the binding result is reported as “binds”.
